Each block holds one binder with its values, some of them ahead of it.
B3: mCATCH(+) peptide, Ac-QQKPKPKPKQQ-Am (peptide)
peptide: Ac-QQKPKPKPKQQ-NH2
notes: Mutant with proline in place of the phenylalanine residues; also called mutant of CATCH(+)

What was measured:
[1] = molecular target: T1, mCATCH(-) peptide, Ac-EQEPEPEPEQE-Am; assay: ThT fluorimetry, equimolar mixture
T1 construct: Mutant with proline in place of the phenylalanine residues; also called mutant of CATCH(-)
T1 peptide: Ac-EQEPEPEPEQE-NH2
Description: (§1) Thioflavin T (ThT) Assay. A ThT stock solution containing 0.8 mg/mL of thioflavin T (Acros) in 1× phosphate-buffered saline (PBS) (137 mM NaCl, 2.7 mM, KCl, 10 mM Na₂HPO₄ and 1.8 mM KH₂PO₄, pH 7.4) was filtered through a 0.22 μm syringe filter (Millex), and further diluted 1:10 with 1× PBS to create a working solution. Peptide samples were mixed with the ThT working solution at a 1:10 (v/v) ratio, added to a black 96-well plate (Corning), and analyzed with a Molecular Devices SpectraMax M3 spectrophotometer (excitation 450, emission 482 nm). All samples were run in triplicate, with the mean and standard deviation of these samples reported.
(§2) Nanofiber preparation. Stock solutions of CATCH(−) and CATCH(+) were prepared by dissolving lyophilized peptides in 1× PBS to a final concentration of 500 μM. Peptide concentration was confirmed using Phe absorbance (λ=260 nm). CATCH peptides were then mixed at a 1:1 (v/v) ratio and incubated overnight for formation of nanofibers, unless stated otherwise.

[2] = molecular target: the molecule itself; assay: TEM and circular dichroism of the peptide alone (self-assembly)
[3] = molecular target: the molecule itself; assay: ThT fluorescence microscopy and the data taken together (self-assembly)
Description: For samples containing only CATCH peptides, ThT was mixed with samples at a 1:1 (v/v) ratio, 5 μL of each sample was placed onto a glass microscope slide, samples were covered with a cover slip, and samples were viewed using a GFP filter set. For samples containing CATCH peptides and CATCH(−)GFP, 0.75 μM CATCH(−)GFP was mixed with 200 μM CATCH(+) and 187.5 μM CATCH(−), unless otherwise specified. 5 μL of each sample was placed onto a glass microscope slide, samples were covered with a cover slip, and samples were viewed using a GFP filter set. For all samples, images were collected using an exposure time of 4 s.

[4] = molecular target: B3; assay: ThT fluorimetry, equimolar mixture
Description: as §1, §2

[5] = molecular target: T1, mCATCH(-) peptide, Ac-EQEPEPEPEQE-Am; assay: ThT fluorimetry, kinetic

- binding result [1]: no binding
B1: CATCH(+) peptide, Ac-QQKFKFKFKQQ-Am (peptide)
peptide: Ac-QQKFKFKFKQQ-NH2
notes: also called CATCH (4+); positive peptide segment
- binding result [2]: no binding

- binding result [4]: no binding
B2: CATCH(-) peptide, Ac-EQEFEFEFEQE-Am (peptide)
peptide: Ac-EQEFEFEFEQE-NH2
notes: also called CATCH (6-); negative peptide segment
- binding result [3]: no binding

Binder: B3
- binding result [5]: no binding
